Source: patent US20180263919A1, “THERAPEUTIC ELECTROSPUN FIBER COMPOSITIONS” (The Johns Hopkins University, priority 2006, published 2018)

Assays:
PC12 cells [1] = settings: Thoenen and Bard; cited from earlier work
[2] = rat, in vivo; cited from earlier work
PC12 cells [3] = experiment: Bioactivity of released NGF: differentiation of PC12 cells into neurons; format: cell-based, rat; settings: positive control, fresh NGF at 400 ng/ml
[4] = in vivo, iv; cited from earlier work

**Q.** Which results are given for “NGF: Recombinant human n-nerve growth factor (NGF) from R&D Systems”?
**A.** threshold for induction of PC12 cell differentiation (PC12 cells [1]): around 0.5 ng/ml; elimination half-life [2]: less than 5 hours; percentage of PC12 cells induced to differentiate (PC12 cells [3]): 20-55%

**Q.** For PDGF, which biologic half-life [4] is on record?
**A.** The biologic half-life was 2 minutes.

**Q.** With bFGF: basic fibroblast growth factor as the substance, how does the biologic half-life [4] read?
**A.** The biologic half-life was 3 minutes.
